# Experimental data reported in article doi:10.1101/2025.04.22.649924.
# Target: ectodomain of APP^695
# Experiment: SPR
row,SPR sensorgram peak (response units) [RU],Substance
1,1650,"SORLA^N1358S ectodomain (soluble mutant SORLA ectodomain, hexa-His-tagged) (from UniProt Q92673 82-2137) (domain or fragment)"
2,1750,"SORLA^WT ectodomain (soluble wildtype SORLA ectodomain, hexa-His-tagged) (from UniProt Q92673 82-2137) (domain or fragment)"
